Laboratory results published in PMC10046460, “Phase I Trial of [^99mTc]Tc-maSSS-PEG2-RM26, a Bombesin Analogue Antagonistic to Gastrin-Releasing Peptide Receptors (GRPRs), for SPECT Imaging of GRPR Expression in Malignant Tumors” (Cancers, 2023).
Read-outs that look alike come from different tables or passages of the source. Each block holds one compound with its values, some of them ahead of it. Square brackets hold non-standard residues; d marks the D form. Peptide text beside a SMILES is read from it. * marks the point of attachment. Sta = CC(C)C[C@H](N)[C@@H](O)CC(=O)O; Mercaptoacetyl = O=C(CS)*; AEEA = NCCOCCOCC(=O)O

Columns and labels:
[1] = system: prostate-specific membrane antigen (PSMA); conditions: PCa patients; cited from earlier work
Method: Prostate and breast cancers are the most common sex-related malignancies, with an increasing incidence in many countries over the past 30 years. Accurate diagnosis and staging of the diseases are important for the prognosis and determination of treatment tactics for these pathologies. […] Many derivatives of this pseudo-peptide were tested clin ...

[2] = in vivo; cited from earlier work
From the text: The biodistribution of [^99mTc]Tc-maSSS-PEG2-RM26 was characterized by the rapid whole body elimination and blood clearance of unbound tracers (Figure 4). This decreases the background caused by the blood-borne activity and creates preconditions for high-contrast imaging. The clinical trial confirmed the major feature of the tracer found in the preclinical studies, a substantial degree of hepatobiliary excretion. The hepatobiliary excretion of [^99mTc]Tc-maSSS-PEG2-RM26 was the highest among other GRPR antagonists tested in clinics and was similar to the excretion of [^99mTc]Tc-RP527, a ...

clinical = conditions: human, in vivo; for tissue uptake dose at 2 h / tissue uptake dose at 4 h / tissue uptake dose at 6 h / tissue uptake dose at 24 h: iv, 40 ug, total radioactivity, Distribution, SD
Method: (§1) Patients were injected with [^99mTc]Tc-maSSS-PEG2-RM26 (40 µg of maSSS-PEG2-RM26 labeled with 640 ± 165 MBq for PCa and 695 ± 120 MBq for BCa patients per injection) as a single intravenous bolus. Imaging was performed using a hybrid system (Symbia Intevo T16), equipped with a dual-head gamma camera and an integrated 16-slice CT scanner. For imaging, a low-energy high-resolution collimator was used. Patients underwent whole-body planar images (anterior and posterior, with a of scan speed 12 cm/min in a 1024 × 256 pixel matrix) and SPECT-CT acquisition (32 projections, 30 s each, in a 128 × 128 pixel matrix) and a low-dose CT (140 kVp, 20 mAs/slice in a 512 × 512 pixel matrix) were performed 2, 4, 6, and 24 h after injection. The images were transferred to a Syngo.via (Siemens) workstation for analysis.
(§2) The geometric means of counts in the regions of interest (ROIs) drawn over organs and the whole body for anterior and posterior projections were calculated for every time point. An ROI for the heart was used to estimate activity concentrations in the blood. Quantification was performed as described previously. Absorbed doses for individual organs, effective doses, and effective dose equivalents were calculated in OLINDA/EXM 1.1 (adult male phantom for PCa and adult female phantom for BCa) using average residence times derived from activity distributions over time fitted to a single exponential using Prism 9.2.0 (GraphPad Software, LLC, Boston, MA, USA).

[3] = target: T1, gastrin-releasing peptide receptor (GRPR) (Homo sapiens, UniProt P30550); test: SPECT/CT imaging of tumor and LN metastasis uptake in BCa patients; format: in vivo; conditions: for SUVmax, tumor (T) / SUVmax, single LN metastasis (LNM): 2 h post administration, 40 µg iv; for median activity accumulation (SUVmax): 2 h after injection, Me [Q1–Q3]
T1 construct: from tissue; host or cells: primary prostate cancer, primary breast cancer and axillary lymph-node metastases in living patients
Method: (§3) A single-center diagnostic phase I open-label exploratory study (ClinicalTrials.gov ID NCT04746638) was conducted at the Cancer Research Institute, Tomsk National Research Medical Center of the Russian Academy of Sciences, and the initial protocol was approved by the Institute’s Scientific Council and Board of Medical Ethics (protocol 14, approved 21 December 2020). Patients (18–70 y) with clinically and radiologically diagnosed (with histological verification) PCa or BCa were included in this study after providing written informed consent. Criteria for inclusion were: the ability to undergo planned diagnostic investigations; patient’s hematological, liver, and renal function test results within the normal limits; and a negative pregnancy test for BCa patients. The exclusion criteria included contraindications to surgical intervention due to severe concomitant pathology; a second malignancy (non-breast or non-prostate); activity/history of autoimmune disease, hepatitis B or C, HIV, or infectious diseases within the preceding 3 months; participation in other clinical studies; and ongoing toxicity over grade 2 from previous standards or investigational therapies. Additionally, for PCa patients, exclusion criteria were androgen deprivation therapy over 3 months, and for BCa patients, exclusion criteria were HER2-positive or non-luminal cancer, in situ T0 and T3-4 tumors, the presence of distant metastases, and history of chemo- and/or hormone-therapy. Six male PCa and seven female BCa patients were included in the study (Figure 1 and Figure 2).
as §1

[4] = target: T1, gastrin-releasing peptide receptor (GRPR); test: SPECT/CT imaging of tumor uptake in PCa patients; format: in vivo; conditions: for SUVmax: prostate tumor, 40 µg iv; for SUVmax / Ratio SUVmax in Tumor to Background: 2 h post administration
Method: as §3, §1

[5] = parameters: species or system human; conditions: in vivo
Method: as §2

T1 sequence (P30550 whole entry): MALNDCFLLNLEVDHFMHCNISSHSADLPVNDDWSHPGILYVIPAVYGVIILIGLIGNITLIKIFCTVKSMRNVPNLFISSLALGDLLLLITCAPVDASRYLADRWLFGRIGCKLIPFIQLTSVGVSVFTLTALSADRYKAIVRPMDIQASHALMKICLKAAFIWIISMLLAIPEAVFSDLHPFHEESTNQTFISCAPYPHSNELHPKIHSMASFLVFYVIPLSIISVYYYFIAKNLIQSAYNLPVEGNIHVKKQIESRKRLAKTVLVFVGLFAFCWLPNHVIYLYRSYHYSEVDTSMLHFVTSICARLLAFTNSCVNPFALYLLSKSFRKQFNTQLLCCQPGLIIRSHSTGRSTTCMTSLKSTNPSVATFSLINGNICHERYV

Compound: O=C(O)CC[C@H](NC(=O)N[C@@H](CCCCNC(=O)c1ccc([18F])nc1)C(=O)O)C(=O)O [^18F-DCFPyL]
sensitivity in the detection of LN metastases [1]: 40%

Compound: D-Phe-Gln-Trp-Ala-Val-Sar-His-Sta-Leu-NHEt [[^99mTc]Tc-DB15, ^99mTc-labeled BN antagonist for SPECT, tested in two patients]
route of excretion [2]: Predominantly renal excretion

Compound: O=C([O-])CN(CCN(CC(=O)[O-])Cc1cc(CCC(=O)NCCCCCC(=O)NCCCC[C@H](NC(=O)N[C@@H](CCC(=O)O)C(=O)O)C(=O)O)ccc1[O-])Cc1cc(CCC(=O)O)ccc1[O-].[68Ga+3].[OH3+] [^68Ga-PSMA]
sensitivity in the detection of LN metastases [1]: 61%

SUVmax, tumor (T) ([3]; BCa patient B1, SPECT/CT): T: 1.41 (2.8 × 2.2)
SUVmax, single LN metastasis (LNM) ([3]; BCa patient B2, SPECT/CT): 1.8
SUVmax, tumor (T) ([3]; BCa patient B2, SPECT/CT): 1.75
SUVmax, single LN metastasis (LNM) ([3]; BCa patient B3, SPECT/CT): 1.8
SUVmax, tumor (T) ([3]; BCa patient B3, SPECT/CT): 0.87
SUVmax, single LN metastasis (LNM) ([3]; BCa patient B4, SPECT/CT): 0.58
SUVmax, tumor (T) ([3]; BCa patient B4, SPECT/CT): 0.57
SUVmax, single LN metastasis (LNM) ([3]; BCa patient B5, SPECT/CT): 1.8
SUVmax, tumor (T) ([3]; BCa patient B5, SPECT/CT): 0.87
SUVmax, tumor (T) ([3]; BCa patient B6, SPECT/CT): T: 0.43 (1.5 × 1.5)
SUVmax, tumor (T) ([3]; BCa patient B7, SPECT/CT): T: 0.50 (1.5 × 1.4)
patients with high uptake in axillary LN ([3]; BCa patients, SPECT/CT): four BCa patients
patients with increased accumulation in the tumor ([3]; BCa patients, SPECT/CT): seven out of seven
median activity accumulation (SUVmax) ([3]; LN metastases in BCa patients): 1.8 [0.58–1.8]
median activity accumulation (SUVmax) ([3]; breast tumors): 0.87 [0.43–1.75]
SUVmax ([4]; PCa patient P2, SPECT/CT): 0.78 (1.7 × 2)
SUVmax ([4]; PCa patient P3, SPECT/CT): 1.21 (4.1 × 2.8)
SUVmax ([4]; PCa patient P4, SPECT/CT): 1.14 (1.8 × 2.0)
Ratio SUVmax in Tumor to Background ([4]; PCa patient P5): No accumulation
SUVmax ([4]; PCa patient P5, SPECT/CT): No accumulation
Ratio SUVmax in Tumor to Background ([4]; PCa patient P6): No accumulation
SUVmax ([4]; PCa patient P6, SPECT/CT): No accumulation
patients with uptake in tumors identified ([4]; PCa patients, SPECT/CT): four out of six
median activity accumulation (SUVmax) ([4]; prostate tumors, 2 h after injection, Me [Q1–Q3]): 1.18 [0.78–1.67]
Compound: CC(C)C[C@H](NC(=O)C[C@H](O)[C@H](CC(C)C)NC(=O)[C@H](Cc1c[nH]cn1)NC(=O)CNC(=O)[C@@H](NC(=O)[C@H](C)NC(=O)[C@H](Cc1c[nH]c2ccccc12)NC(=O)[C@H](CCC(N)=O)NC(=O)[C@@H](Cc1ccccc1)NC(=O)COCCOCCNC(=O)[C@H](CO)NC(=O)[C@H](CO)NC(=O)[C@H](CO)NC(=O)CS)C(C)C)C(N)=O [[^99mTc]Tc-maSSS-PEG2-RM26, metal not drawn] (Mercaptoacetyl-SSS[AEEA][dF]QWAVGH[Sta]L-NH2)
tissue uptake dose at 2 h (clinical; female, Gall bladder): 5 ± 5 %ID
tissue uptake dose at 4 h (clinical; female, Gall bladder): 5 ± 4 %ID
tissue uptake dose at 6 h (clinical; female, Gall bladder): 4 ± 3 %ID
tissue uptake dose at 24 h (clinical; female, Gall bladder): 0.3 ± 0.1 %ID
tissue uptake dose at 2 h (clinical; female, Jejunum): 21 ± 9 %ID
tissue uptake dose at 4 h (clinical; female, Jejunum): 25 ± 17 %ID
tissue uptake dose at 6 h (clinical; female, Jejunum): 13 ± 10 %ID
tissue uptake dose at 24 h (clinical; female, Jejunum): 3 ± 2 %ID
tissue uptake dose at 2 h (clinical; female, Kidney): 5 ± 3 %ID
tissue uptake dose at 4 h (clinical; female, Kidney): 3 ± 3 %ID
tissue uptake dose at 6 h (clinical; female, Kidney): 3 ± 3 %ID
tissue uptake dose at 24 h (clinical; female, Kidney): 5 ± 5 %ID
tissue uptake dose at 2 h (clinical; female, Liver): 6 ± 2 %ID
tissue uptake dose at 4 h (clinical; female, Liver): 3 ± 1 %ID
tissue uptake dose at 6 h (clinical; female, Liver): 3 ± 2 %ID
tissue uptake dose at 24 h (clinical; female, Liver): 2 ± 2 %ID
tissue uptake dose at 2 h (clinical; female, Lower colon): 1.4 ± 0.8 %ID
tissue uptake dose at 4 h (clinical; female, Lower colon): 1 ± 0.9 %ID
tissue uptake dose at 6 h (clinical; female, Lower colon): 0.8 ± 0.7 %ID
tissue uptake dose at 24 h (clinical; female, Lower colon): 20 ± 15 %ID
tissue uptake dose at 2 h (clinical; female, Upper colon): 1.1 ± 0.6 %ID
tissue uptake dose at 4 h (clinical; female, Upper colon): 6 ± 12 %ID
tissue uptake dose at 6 h (clinical; female, Upper colon): 19 ± 17 %ID
tissue uptake dose at 24 h (clinical; female, Upper colon): 15 ± 10 %ID
tissue uptake dose at 2 h (clinical; female, Urinary bladder): 4 ± 7 %ID
tissue uptake dose at 4 h (clinical; female, Urinary bladder): 1 ± 2 %ID
tissue uptake dose at 6 h (clinical; female, Urinary bladder): 0.3 ± 0.3 %ID
tissue uptake dose at 24 h (clinical; female, Urinary bladder): 0.2 ± 0.2 %ID
activity in liver and kidneys (clinical): over 3 % of injected activity
injected activity excreted via bile (clinical): Up to 40%
route of excretion (clinical): predominantly hepatobiliary excretion
tissue uptake dose at 2 h (clinical; male, Gall bladder): 2 ± 2 %ID
tissue uptake dose at 4 h (clinical; male, Gall bladder): 2 ± 2 %ID
tissue uptake dose at 6 h (clinical; male, Gall bladder): 2 ± 2 %ID
tissue uptake dose at 24 h (clinical; male, Gall bladder): 2.2 ± 0.3 %ID
tissue uptake dose at 2 h (clinical; male, Jejunum): 12 ± 12 %ID
tissue uptake dose at 4 h (clinical; male, Jejunum): 9 ± 9 %ID
tissue uptake dose at 6 h (clinical; male, Jejunum): 9 ± 19 %ID
tissue uptake dose at 24 h (clinical; male, Jejunum): 10 ± 1 %ID
tissue uptake dose at 2 h (clinical; male, Kidney): 2.9 ± 0.9 %ID
tissue uptake dose at 4 h (clinical; male, Kidney): 3 ± 3 %ID
tissue uptake dose at 6 h (clinical; male, Kidney): 3 ± 1 %ID
tissue uptake dose at 24 h (clinical; male, Kidney): 2.4 ± 0.9 %ID
tissue uptake dose at 2 h (clinical; male, Liver): 4 ± 2 %ID
tissue uptake dose at 4 h (clinical; male, Liver): 2.2 ± 0.8 %ID
tissue uptake dose at 6 h (clinical; male, Liver): 1.8 ± 0.6 %ID
tissue uptake dose at 24 h (clinical; male, Liver): 2 ± 1 %ID
tissue uptake dose at 2 h (clinical; male, Lower colon): 0.6 ± 0.5 %ID
tissue uptake dose at 4 h (clinical; male, Lower colon): 0.2 ± 0.2 %ID
tissue uptake dose at 6 h (clinical; male, Lower colon): 0.5 ± 0.4 %ID
tissue uptake dose at 24 h (clinical; male, Lower colon): 0.4 ± 0.2 %ID
tissue uptake dose at 2 h (clinical; male, Upper colon): 1.1 ± 1 %ID
tissue uptake dose at 4 h (clinical; male, Upper colon): 8 ± 3 %ID
tissue uptake dose at 6 h (clinical; male, Upper colon): 20 ± 13 %ID
tissue uptake dose at 24 h (clinical; male, Upper colon): 7 ± 8 %ID
tissue uptake dose at 2 h (clinical; male, Urinary bladder): 4 ± 6 %ID
tissue uptake dose at 4 h (clinical; male, Urinary bladder): 2 ± 1 %ID
tissue uptake dose at 6 h (clinical; male, Urinary bladder): 0.6 ± 0.4 %ID
tissue uptake dose at 24 h (clinical; male, Urinary bladder): 0.16 ± 0.07 %ID
radionuclide-associated dose burden per patient [5]: 3-6 mSv/study
Absorbed dose, Ovaries ([5]; iv): 0.018 ± 0.008
Absorbed dose, Testes ([5]; iv): 0.004 ± 0.005
Absorbed dose, Uterus ([5]; iv): 0.020 ± 0.008
